Measurements taken from patent US20040106557A1 (LICENTIA, published 2004).

T1: GST-C-4 (peptide C-4 expressed as glutathione S-transferase fusion protein)
T1 chain: CVAYCIEHHCWTC

B1: Prostate specific antigen (PSA), purified from human seminal fluid (enzyme)
chain: not shown
notes: mature; Mostly captured on wells by MAb 5E4 (IFMA) or on the chip by MAb H117 (SPR); in solution in enzyme assays; also called free PSA; active PSA
B2: GST-B-2 (peptide B-2 expressed as glutathione S-transferase fusion protein) (other)
chain: CVFAHNYDYLVC
B3: GST-A-1 (peptide A-1 expressed as glutathione S-transferase fusion protein) (other)
chain: CVFTSDYAFC

Columns and labels:
[1] = target: B3; assay: competition IFMA: GST-peptide (167 nM) preincubated with PSA in solution, then binding to PSA captured by MAb 5E4
Experimental: (§1) Various amounts of GST-peptide or wild type GST were added to wells containing captured PSA in 200 μL of assay buffer and incubated for 1 h. To test the effect of Zn²⁺ on the binding between GST-peptide and PSA, various concentrations of Zn²⁺ (1-200 μM) were added to the buffer in the incubation step of GST-peptide and PSA. […] After incubation for 1 h the wells were washed and Eu³⁺-labeled anti GST antibody was added. After further incubation and washing the bound fluorescence was measured as described above. When assessing the binding of the GST-peptides to other proteinases, including chymotrypsin, cathepsin G, trypsin, and kallikrein, these proteinases were captured by their specific antibodies coated to the microtitration well. Recombinant hK2 was captured by MAb 5E4, which is known to bind hK2 (24). For assessing the binding of the GST-peptides with complexes of PSA, including PSA-ACT and PSA-α1-protease inhibitor (PSA-API) (28), the complexes were captured by antibodies against ACT and API, respectively. After capturing the various proteinases or PSA complexes, GST-peptide was added and binding was monitored as described above for the GST-peptide IFMA.
(§2) In this connection, we refer also to FIG. 3. GST-C-4 was preincubated with increasing concentrations of PSA in solution for 1 h. Then the samples of the mixtures were added to wells in which PSA had been captured by anti PSA MAb. The binding was measured by IFMA. Data represent mean values from duplicate wells ±SE. The corresponding values for the peptides A-1 (SEQ ID NO 1) and B-2 (SEQ ID NO 6) were 3.3 nM and 1 nM, respectively (data not shown). Preincubation of the GST-peptides with an excess of free PSA inhibited binding to the solid phase PSA. The binding of peptide C-4 (SEQ ID NO 11) to captured PSA was reduced by 50% at a PSA concentration of 0.7 nM.

[2] = target: B2; assay: as above
Experimental: as §1, §2

[3] = target: T1, GST-C-4 (peptide C-4 expressed as …); assay: as above
Experimental: as §1, §2

[4] = target: B1; assay: cell-based or functional assay
[5] = target: B1; assay: cell-based or functional assay; remark: listed apart in the source
[6] = target: B1; assay: SPR, PSA captured by MAb H117, 10 µM Zn2+
[7] = target: B1; assay: SPR, PSA captured by MAb H117, 30 µM Zn2+
[8] = target: B1; assay: SPR, PSA captured by MAb H117, 1 µM Zn2+, single fit, 3.4 µM peptide
[9] = target: B1; assay: SPR, PSA captured by MAb H117, 10 µM Zn2+, single fit, 3.4 µM peptide
[10] = target: B1; assay: SPR, PSA captured by MAb H117, 30 µM Zn2+, single fit, 3.4 µM peptide
[11] = target: B1; assay: GST-peptide IFMA, PSA captured by MAb 5E4, Eu-labelled anti GST tracer
[12] = target: B1; assay: SPR, PSA captured by MAb H117, 0 µM Zn2+, average of 3 fits (3.4-8.5 µM analyte)
[13] = target: B1; assay: SPR, GST-peptide injected over PSA captured by MAb H117; average of 3 concentrations
[14] = target: B1; assay: SPR, PSA captured by MAb H117, 1 µM Zn2+

minimum peptide concentration affecting the activity [4] [nM] | 50% stimulation [5] [µM] | increase (fold) of affinity against 0 µM Zn2+ [6] [fold] | increase (fold) of affinity against 0 µM Zn2+ [7] [fold] | Kd [8] [nM] | koff [8] [s⁻¹] | Kd [9] [nM] | koff [9] [s⁻¹] | kon [9] [M⁻¹ s⁻¹] | Kd [10] [nM] | koff [10] [s⁻¹] | kon [10] [M⁻¹ s⁻¹] | Maximal binding (CPS) [11] [CPS] | Kd [12] [µM] | koff [12] [s⁻¹] | kon [12] [M⁻¹ s⁻¹] | Kd [13] [µM] | koff [13] [s⁻¹] | kon [13] [M⁻¹ s⁻¹] | Binder | further results
 |  |  |  |  |  |  |  |  |  |  |  |  |  |  |  |  |  |  | B1 | IC50 [1]: 3.3 nM; IC50 [2]: 1 nM; IC50 [3]: 0.7 nM
300 | 1.7 | 6 | 4.7 | 3100 | 0.0035 | 600 | 0.0016 | 2650 | 800 | 0.0006 | 830 | 428000 | 3.5 | 0.057 | 16300 | 3.5 | 0.057 | 16300 | B2 | 
300 | 2.2 | 5.9 | 7.7 | 2600 | 0.0047 | 1400 | 0.0016 | 1200 | 1000 | 0.002 | 1900 | 219000 | 7.8 | 0.08 | 10300 | 7.8 | 0.08 | 10300 | B3 | increase (fold) of affinity against 0 µM Zn2+ [14]: 3 fold; kon [8]: 1800 M⁻¹ s⁻¹
